Results on 21 sequences are retold here after the DeepSol protein solubility set.

The data set in a line: soluble on expression in E. coli; label from the status in PepcDB or PDB records.
On to “RSAFSKIESEEYNSLKSSTIQTIGTSDGGSGIGYIESGDYLVFNKINFGNGANSFKARVASGADTPTNIQLRLGSPTGTLIGTLTVASTGGWNNYEEKSCSITNTTGQHDLYLVFSGPVNIDYFIFDSNGVNP”, for which the “soluble on expression in E. coli” value is listed as “soluble”. For “AMNLIFLGTSAGVPTRTRNVTAILLNLQHPTQSGLWLFDCGEGTQHQLLHTAFNPGKLDKIFISHLHGDHLFGLPGLLCSRSMSGIIQPLTIYGPQGIREFVETALRISGSWTDYPLEIVEIGAGEILDDGLRKVTAYPLEHPLECYGYRIEEHDAPGALNAQALKAAGVPPGPLFQELKAGKTITLEDGRQINGADYLAAPVPGKALAIFGDTGPCDAALDLAKGVDVMVHEATLDITMEAKANSRGHSSTRQAATLAREAGVGKLIITHVSSRYDDKGCQHLLRECRSIFPATELANDFTVFNV” the value was “soluble”. Under “MISSIRLDLFRTKVFVMPLKFPLSICLLGTFLVTSAQAQEAVKGVVELFTSQGCASCPPADEALRKMIQKGDVVGLSYHVDYWNYLGWTDSLASKENTERQYGYMRALGRNGVYTPQAILNGRDHVKGADVRGIYDRLDAFKREGQGLNVPVSSKFAGDEVEIDIGAGNGKADVVVAYFTREQTVDVQKGENQGKKMSYWHSVYDVQTVGMWDGSPMTVKLPASVVAKVKKGGCAVLLQTANASGDPAAIVGASILLGNETQLEHHHHHH” stands “soluble”; under “MPSKQVGWWTMSEHTNDEVQPTALSGNDAVNRAAEQWKESAHRNIPGLGDLPIPDDTANLREGPNLHDGLLALLPLVGVWRGTGHADTAEEGQYAFGQQITFAHDGENYLTYESRIWKLDDEGNSTDLDYRESGFWRISLKDEIEVVLTHSTGVAEIFYGEPMNERAWQIESASTMVTAQGPATLGPGKRLYGLMPNNNLGWVDERMVDGEMRPRMSAELSRVIG”, “not soluble”; under “MAHHHHHHMSPLDACREQYEKDLANQTHCCMLEHVEEENRAANRKVFVRLLRYQQDINTRGTLPFEPDPTDAQKKSKGGNSAAPAYPENLTIRDPRQLKQILPIPDIHKVSDCDLIYRFLIARRMDVDLATNDILSYIGFREKYSLDTILWDREVEAVFNGLDGEELVQQVMGEMKKGATPAPKVKITRPLLQAGWAAWYCGVDKRGHVIFYQRPNPKELAMLEKRWPYIEGQYDCRNPEFHSVTPPYSNLLSRVYLREVEKGRRISRLLNYNQQYIIREGLHVQTTVKPTSTDTFMDNGGGATCLVDVGSIKLSHLTSSKCKKAFKLFRVLSLTGQSFYPENMSRMIIINGGFVFNMLFKLVRPWLDPQTQKKIVLLSATNRATLDELSSDSNLMSQSHETNDSEESDDDGTPVVGTDSERAKYALRDALAEYIHEDFIPSWYGGRLPVVDSPLFYGASPPKSLAENPQFAAACERLRARVVPQLLPDAFIFANAKEREGVGQEEWEAFCSMTERTLFRKQASTQCSSHS”, “not soluble”.

On to “MTENAQDKARQAVETVVKSPELVEQILSDEYVQIMIARCFHSGPLPPPSDLAQYNDIISNGADRIMAMAEKEQAVRHETIRQDQTFNRRGQ”, for which the “soluble on expression in E. coli” value is “not soluble”. Under “MGSDKIHHHHHHMSTANIAPAIRIGVLGFGGLGQAAAKVLAGKREMKLVAVADQKGYAYAAAGLNFKDCIATYQSQGSVGYLEPVGSLGNNSIQDLIDSSQPVDGYFLALPNLPNDFIPSVARQFIQSGWRGVLVDAIKRTSAVEQLIAMKDELQAAGITYMTGCGATPGLLTAAAALAAQSYAEIHQVEITFGVGIANWEAYRATVREDIGHMPGYTVEAARAMTDAEVEALLDKTNGVLTLQNMEHADDVMLELAGIVERDRVTVGGVVDTRNPKKPLSTNVKVTGRTFEGKISTHTFTLGDETSMAANVCGPAFGYLKAGMQLHQRGIHGIFTAAEIMPQFVK” stands “not soluble”; under “MIKCIYIVCALNDNTIYSTLHYMEYSIQRGEIYMKIIKRSGSEDIFDAAKIVAAIRKANDSVLDYEKLTADQIEEIASNVETACENMKRSPSVEEIQDMVENQLMNKRAFTVARNYITYRYKRAIVRKSNST”, “not soluble”; under “LSNTRVQSRTAKVGYQAGVAINLKTSDYFSIRPEVLYNIMGGDTQYGDDEGNTKVLKNRYDYLSIPLNFVATFEAGPGKINVFVAPQFSLGLGGKYTSNTDSSAVGFFGVRRREDRSGTLQTSDVPDNYTGTNKYFNQINWGINYGVGYQVKGLLFTGQYHMGLSNNEPHYSNPDQEAHRGNVVTKNYGFTVGLTYFFGDTK”, “not soluble”. Under “MESLQNHFLIAMPSLDDTFFERTVIYLCEHDEKGAMGLVINKPLGIEVNSLLEQMDLPTEQVSADLAMGSQVLMGGPVSQDRGFVLHTSQPYWANSTELGSGLMLTTSRDVLTAIGSKRSPDKFLVALGYAGWSKNQLEQELADNSWLTIPADHALLFDINHEDRWQQASRSLGFEAWQLSTQAGHALEHHHHHH” stands “soluble”; under “MRYSSRMPGSVMPGAGAHPRIPQVQTSVANSQILGYLGRALSLEFTAGQHYLAQASLAKFRQEISYAEGFITLANEEFQHANLITDRMVAQGALPAGSVLRPAGSANNIAEALKSCEEREIALIQLYTEATQYCANMGAQEDHALFSRLLEEEQSQLMRVQAWLQDYFQMMANTYQPDRSFV”, “not soluble”.

“GSADAEYDVVVLGGGPGGYSAAFAAADEGLKVAIVERYKTLGGVCLNVGCIPSKALLHNAAVIDEVRHLAANGIKYPEPELDIDMLRAYKDGVVSRLTGGLAGMAKSRKVDVIQGDGQFLDPHHLEVSLTAGDAYEQAAPTGEKKIVAFKNCIIAAGSRVTKLPFIPEDPRIIDSSGALALKEVPGKLLIIGGGIIGLEMGTVYSTLGSRLDVVEMMDGLMQGADRDLVKVWQKQNEYRFDNIMVNTKTVAVEPKEDGVYVTFEGANAPKEPQRYDAVLVAAGRAPNGKLISAEKAGVAVTDRGFIEVDKQMRTNVPHIYAIGDIVGQPMLAHKAVHEGHVAAENCAGHKAYFDARVIPGVAYTSPEVAWVGETELSAKASARKITKANFPWAASGRAIANGCDKPFTKLIFDAETGRIIGGGIVGPNGGDMIGEVCLAIEMGCDAADIGKTIHPHPTLGESIGMAAEVALGTCTDLPPQKK”: the “soluble on expression in E. coli” value was “soluble”.

For the sequence “MARGPKKHLKRLAAPKAWMLDKLGGVFAPRPSTGPHKLRESLPLLIFLRNRLKYALNGAEVTKIVMQRLVKVDGKVRTDPTYPAGYMDVITLEKTGEFFRLVYDVKGRFVIHRISAEEAKYKLCKVKKTQLGAKGVPFLVTHDGRTIRYPDPLIHANDSVQVDIASGKITDYIKFDSGNLCMITGGRNLGRVGTVVNRERHPGSFDIVHIKDSQGHVFATRLTNVFIIGKGNKPYISLPKGKGVKLSIAEERDKRLAAKTH”, the “soluble on expression in E. coli” value is listed as “not soluble”. Under “MGSDKIHHHHHHMAGWRTVVVNTHSKLSYKNNHLIFKDSYQTEMIHLSEIDILIMETTDIVLSTMLIKRLVDENILVIFCDDKRLPTAMLMPYYARHDSSLQLSRQMSWIEDVKADVWTSIIAQKILNQSFYLGECSFFEKSQSIMNLYHDLEPFDPSNREGHAARIYFNTLFGNDFSREQDNPINAGLDYGYSLLLSMFAREVVKCGCMTQFGLKHANQFNQFNLASDIMEPFRPIVDRIIYENRQSDFVKMKRELFSMFSETYSYNGKEMYLSNIVSDYTKKVIKSLNSDGNGIPEFRI” stands “not soluble”; under “MPKWISIDEAAHKYGVKEEDICLWAEMEAITAYFTETTLIIDEKSLQKFMYLRKNLPTTGYIRTLEQLCINQSEVCKLYMEVIELQEKDLQYKKRRISVLERQYAMATKQNKLREKIITITSDMLSKAESGWWEKLWMKISNRQKL”, “not soluble”. Under “MSLSVSEQLFPLTIIHLNDFHARFEETNTVSTRCKPDEGERCIGGYARVVSRVKSLQREYADRNPIYLNAGDNFQGTLWYSLLRWNVTAHFLNLLPADVMTLGNHEFEHGIGGLVPFLDVIDSPVVVTNIDDREEPTLQGKYTKSVVLERGGRKIGVVGVIHHLTNTMGMTERLRFLDEVEQLRMEIGRLKEEGVQHIVVLSHCGLEIDRIIARELPDVDVVVGGHSHTFLYNGTADGFPDDPEDTYPIVVEHPEGRTTLIVQAASYAKYVGRITLYFDEEGNIREWEGNPEFLDSSVPQDEEVLAQLAPWREQVNVQANREGHHHHHH” stands “soluble”; under “MGSDKIHHHHHHMDVENIFRDVKLSKTEMTVLRFIQNDPEQCIRQGVRAVAEQCYSNPSSLVRLAKKLKFSGWLELVYFIKFNITMPKLDVTNDIDYMSVQPEEALTPLLASLNQQRILIHGSGFSQLIAQYIYNKFLVTGVNASLALWPDYEILEQKNAACFDSIWIISKSGRSSSALNWVKALEGKEINLVCFTGDYQSPLAQAADTAFIIHDPQKFDDDIYWSNPFFGYCILGFERLLKMWFTSLRSNS”, “not soluble”. Regarding “MENAKMNSLIAQYPLVKDLVALKETTWFNPGTTSLAEGLPYVGLTEQDVQDAHARLSRFAPYLAKAFPETAATGGIIESELVAIPAMQKRLEKEYQQPISGQLLLKKDSHLPISGSIKARGGIYEVLAHAEKLALEAGLLTLDDDYSKLLSPEFKQFFSQYSIAVGSTGNLGLSIGIMSARIGFKVTVHMSADARAWKKAKLRSHGVTVVEYEQDYGVAVEEGRKAAQSDPNCFFIDDENSRTLFLGYSVAGQRLKAQFAQQGRIVDADNPLFVYLPCGVGGGPGGVAFGLKLAFGDHVHCFFAEPTHSPCMLLGVHTGLHDQISVQDIGIDNLTAADGLAVGRASGFVGRAMERLLDGFYTLSDQTMYDMLGWLAQEEGIRLEPSALAGMAGPQRVCASVSYQQMHGFSAEQLRNTTHLVWATGGGMVPEEEMNQYLAKGR”, the “soluble on expression in E. coli” value is listed as “soluble”. For “MLYVILRGRLGNNLFQIATAASLTQNFIFCTVNKDQERQVLLYKDSFFKNIKVMKGVPDGIPYYKEPFHEFSRIPYEEGKDLIIDGYFQSEKYFKRSVVLDLYRITDELRKKIWNICGNILEKGETVSIHVRRGDYLKLPHALPFCGKSYYKNAIQYIGEDKIFIICSDDIDWCKKNFIGKRYYFIENTTPLLDLYIQSLCTHNIISNSSFSWWGAWLNENSNKIVIAPQMWFGISVKLGVSDLLPVSWVRLPNNYTLGRYCFALYKVVEDYLLNILRLIWKRKKNMLEHHHHHH” the value was “not soluble”.

Take “MNTPLQRPLADSTGLIENDAHALAVATALAQEFSIDAALRDRERQIPYSELDAVSRSGILGISIPLAFGGAEVNNVILAKVIAQIAQADGSLGQILQNHFHTLEALRVYGSRAQQQRIFAEVLAGALFGVAVDEQGTTNSQICTAVLAPSGEGYRISGRKFCATCAPYTRQILASAVDAQGARYMVFISLDALGLSIVDDGSCFGQRTVGGGSVMFDNVYVTSSDVVPFQVSLNDPNCVERHAQFMHAAVGTGIARAAYEDTLRFVREHARPWPEAAVDKARDDPLTIIEIGRLIIRLHAAEALLERAGAAVDLNRKAVCAENVALASMVVAAAQTLSTEVSLAAGSKLIELGGARATLSDYGLDRHWRNARVHTLYDPARWGPHQQGQQKLAPF”: the “soluble on expression in E. coli” value was “not soluble”. Regarding “MSGATPVFTEINQIQGTGDKSPLISSGFISDDEYFVQGVVTARGESLLKGFYLQGLNDDFDPNSSEGIFVSTGSAPSLEIQPGALVCVKAKVQEYYGQTQLKPDTNNFLVQGHQAPVSVTELTINENETLAQALERHEGMQVKLTSHSDLRITRNFSFDYASKRNNMVLSHGEPLFKPTQLFAAESPEAIQLAEENAKRQITIESDNKAPNGEVPYFPDFATDSNQDGSADSYLRLGARIEGLEGVIAYSYGQYRLVTTNTISQENIITQAFDEDGLEHHHHHH”, the “soluble on expression in E. coli” value is given as “soluble”.
